Here are results for one molecule from publication PMC6182170, “A protein–protein interaction underlies the molecular basis for substrate recognition by an adenosine-to-inosine RNA-editing enzyme”.

In this data set the target is T1, ADR-1 WT (Caenorhabditis elegans, UniProt Q9U3D6 1-964).
T1 sequence: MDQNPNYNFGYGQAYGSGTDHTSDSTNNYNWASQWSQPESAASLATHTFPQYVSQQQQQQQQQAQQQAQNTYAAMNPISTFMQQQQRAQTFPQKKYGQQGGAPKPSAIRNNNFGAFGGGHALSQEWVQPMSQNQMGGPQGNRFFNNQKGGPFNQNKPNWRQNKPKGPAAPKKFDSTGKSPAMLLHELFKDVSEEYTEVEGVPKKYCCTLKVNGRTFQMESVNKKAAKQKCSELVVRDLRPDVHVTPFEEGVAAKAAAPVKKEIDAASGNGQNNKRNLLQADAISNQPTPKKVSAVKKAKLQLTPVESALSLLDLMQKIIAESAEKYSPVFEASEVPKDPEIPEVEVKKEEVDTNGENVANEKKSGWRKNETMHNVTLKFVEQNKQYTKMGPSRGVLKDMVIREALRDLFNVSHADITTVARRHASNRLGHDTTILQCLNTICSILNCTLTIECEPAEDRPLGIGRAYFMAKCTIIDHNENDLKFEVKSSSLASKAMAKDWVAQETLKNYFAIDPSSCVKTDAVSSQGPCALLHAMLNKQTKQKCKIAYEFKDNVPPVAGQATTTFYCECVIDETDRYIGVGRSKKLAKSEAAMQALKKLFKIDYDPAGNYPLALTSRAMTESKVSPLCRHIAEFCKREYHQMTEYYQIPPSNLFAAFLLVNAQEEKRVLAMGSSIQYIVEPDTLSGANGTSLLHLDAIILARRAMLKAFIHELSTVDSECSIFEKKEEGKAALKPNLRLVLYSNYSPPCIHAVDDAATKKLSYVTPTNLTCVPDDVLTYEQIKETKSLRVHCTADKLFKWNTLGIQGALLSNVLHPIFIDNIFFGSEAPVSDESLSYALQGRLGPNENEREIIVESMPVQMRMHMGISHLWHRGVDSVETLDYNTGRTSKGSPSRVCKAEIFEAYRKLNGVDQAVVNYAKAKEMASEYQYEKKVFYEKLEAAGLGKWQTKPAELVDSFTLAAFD
As to the kind of experiment: EMSA; apparent Kd; EMSA: 20 pM dsRNA, 50 mM KCl, 10 mM Tris-HCl pH 8.0, 10% glycerol, 1 mM MgCl2, 0.5 mM DTT, on ice 30 min; native 6% gel, 0.5x TBE, 4 C. The note with it: protein: recombinant; tags: N-terminal 6xHis (TEV site); label: 5' 32P on ssRNAs (PNK); imperfect duplex; printed strands 45 and 46 nt. (In EMSA bound probe runs differently from free probe, usually more slowly.)

B1: lam-2 3'UTR 46 bp dsRNA (dsRNA)
RNA 1: AGACACACAUACAAAAUUUACAAAAAUUGUUAAUUGACAAAAUAC
RNA 2: GUGUUUUGCCAAUUAACGAUUUUUUGUAAAUUUUAUAUGUGUCUCU
For B1, the Kd was found to be 1.75 ± 0.15 nM.
